This note sets out measurements from article doi:10.1101/2021.10.29.466147 (bioRxiv, 2021).

In experiment [1] the target is T1, Smc4 V721C, R1417C (SMC-kleisin ring circularization in vitro) (S. cerevisiae, UniProt Q12267 1-1418, V721C | R1417C).
T1 sequence: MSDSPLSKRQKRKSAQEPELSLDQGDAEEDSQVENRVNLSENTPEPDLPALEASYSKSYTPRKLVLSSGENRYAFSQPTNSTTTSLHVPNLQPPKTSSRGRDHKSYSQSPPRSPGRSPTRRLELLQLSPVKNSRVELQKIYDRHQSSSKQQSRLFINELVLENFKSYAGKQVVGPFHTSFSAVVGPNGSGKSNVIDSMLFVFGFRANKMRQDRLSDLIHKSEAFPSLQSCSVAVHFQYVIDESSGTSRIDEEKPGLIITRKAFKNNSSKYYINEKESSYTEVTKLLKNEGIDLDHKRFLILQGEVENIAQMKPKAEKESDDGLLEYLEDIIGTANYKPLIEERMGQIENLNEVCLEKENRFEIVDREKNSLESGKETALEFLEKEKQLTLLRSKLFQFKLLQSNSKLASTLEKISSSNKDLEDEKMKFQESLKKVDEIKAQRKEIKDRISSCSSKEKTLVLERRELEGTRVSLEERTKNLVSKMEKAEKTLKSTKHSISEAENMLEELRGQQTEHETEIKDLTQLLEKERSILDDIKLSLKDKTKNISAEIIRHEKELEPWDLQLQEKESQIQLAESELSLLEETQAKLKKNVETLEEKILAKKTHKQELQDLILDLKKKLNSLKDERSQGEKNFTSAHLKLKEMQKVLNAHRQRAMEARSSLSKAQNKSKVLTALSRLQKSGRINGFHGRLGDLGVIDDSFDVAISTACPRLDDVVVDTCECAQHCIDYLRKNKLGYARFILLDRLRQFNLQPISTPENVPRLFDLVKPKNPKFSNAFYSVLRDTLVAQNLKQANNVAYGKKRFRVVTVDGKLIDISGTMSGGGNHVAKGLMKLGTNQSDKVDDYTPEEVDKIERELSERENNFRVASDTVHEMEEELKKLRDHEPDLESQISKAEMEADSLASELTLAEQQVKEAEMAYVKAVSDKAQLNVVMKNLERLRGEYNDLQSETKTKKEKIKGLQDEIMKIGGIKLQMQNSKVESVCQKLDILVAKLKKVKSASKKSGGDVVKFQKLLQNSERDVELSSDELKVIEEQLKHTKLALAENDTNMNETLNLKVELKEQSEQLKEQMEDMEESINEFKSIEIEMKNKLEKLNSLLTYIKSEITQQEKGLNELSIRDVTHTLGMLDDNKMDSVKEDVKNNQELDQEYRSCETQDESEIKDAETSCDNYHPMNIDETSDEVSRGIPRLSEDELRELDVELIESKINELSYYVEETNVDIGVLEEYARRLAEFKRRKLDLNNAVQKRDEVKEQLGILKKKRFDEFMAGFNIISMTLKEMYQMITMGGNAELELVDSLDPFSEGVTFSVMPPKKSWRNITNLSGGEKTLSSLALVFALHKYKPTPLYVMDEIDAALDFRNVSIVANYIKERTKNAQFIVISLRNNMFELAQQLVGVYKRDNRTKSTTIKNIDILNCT
Nature of the experiment: cross-linking.

For experiment [2], the target named is T2, Ycs4, HEAT-repeat subunit I of S. cerevisiae condensin (S. cerevisiae, UniProt Q06156 1-1176).
T2 sequence: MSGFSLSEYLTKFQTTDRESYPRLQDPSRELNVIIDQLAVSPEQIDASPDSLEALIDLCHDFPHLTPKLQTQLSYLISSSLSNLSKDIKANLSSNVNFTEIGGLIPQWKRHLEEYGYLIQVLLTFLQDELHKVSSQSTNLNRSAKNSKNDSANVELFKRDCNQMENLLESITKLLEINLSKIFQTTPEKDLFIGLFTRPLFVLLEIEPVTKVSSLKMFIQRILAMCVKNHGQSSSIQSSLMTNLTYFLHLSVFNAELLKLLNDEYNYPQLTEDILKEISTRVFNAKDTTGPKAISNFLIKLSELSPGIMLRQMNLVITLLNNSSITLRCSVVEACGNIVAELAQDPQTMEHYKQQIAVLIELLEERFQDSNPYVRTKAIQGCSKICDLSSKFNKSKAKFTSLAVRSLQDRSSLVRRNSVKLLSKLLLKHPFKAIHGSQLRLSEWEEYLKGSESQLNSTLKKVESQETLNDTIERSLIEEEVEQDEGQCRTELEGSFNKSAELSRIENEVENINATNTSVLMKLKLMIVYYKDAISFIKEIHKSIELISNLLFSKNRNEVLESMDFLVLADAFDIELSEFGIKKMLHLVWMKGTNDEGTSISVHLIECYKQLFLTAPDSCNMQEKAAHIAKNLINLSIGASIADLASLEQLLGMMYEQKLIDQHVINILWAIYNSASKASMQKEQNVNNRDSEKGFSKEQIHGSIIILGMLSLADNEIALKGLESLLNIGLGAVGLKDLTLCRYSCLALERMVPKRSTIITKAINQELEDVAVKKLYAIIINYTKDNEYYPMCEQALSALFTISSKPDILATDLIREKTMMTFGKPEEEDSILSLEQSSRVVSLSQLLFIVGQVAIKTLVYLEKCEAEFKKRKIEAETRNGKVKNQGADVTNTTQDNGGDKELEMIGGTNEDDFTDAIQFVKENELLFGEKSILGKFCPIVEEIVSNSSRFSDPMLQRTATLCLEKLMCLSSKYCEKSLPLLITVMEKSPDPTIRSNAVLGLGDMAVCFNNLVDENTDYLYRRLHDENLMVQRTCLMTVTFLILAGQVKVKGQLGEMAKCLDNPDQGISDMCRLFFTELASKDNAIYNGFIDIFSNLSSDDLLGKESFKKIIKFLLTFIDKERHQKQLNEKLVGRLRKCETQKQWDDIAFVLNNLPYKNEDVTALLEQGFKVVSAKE
Nature of the experiment: cryo-EM structure.

Substitutions are numbered along the chain they refer to. Names may count otherwise.

B1: Smc2 K639C, the Smc2 part of the Smc2–TEV–Brn1 fusion (SMC-kleisin ring circularization in vitro) (natural protein, S. cerevisiae)
chain: MKVEELIIDGFKSYATRTVITDWDPQFNAITGLNGSGKSNILDAICFVLGIASMSTVRASSLQDLIYKRGQAGVTKASVTIVFDNTDKSNSPIGFTNSPQISVTRQVVLGGTSKYLINGHRAPQQSVLQLFQSVQLNINNPNFLIMQGKITKVLNMKPSEILSLIEEAAGTKMFEDRREKAERTMSKKETKLQENRTLLTEEIEPKLEKLRNEKRMFLEFQSTQTDLEKTERIVVSYEYYNIKHKHTSIRETLENGETRMKMLNEFVKKTSEEIDSLNEDVEEIKLQKEKELHKEGTISKLENKENGLLNEISRLKTSLSIKVENLNDTTEKSKALESEIASSSAKLIEKKSAYANTEKDYKMVQEQLSKQRDLYKRKEELVSTLTTGISSTGAADGGYNAQLAKAKTELNEVSLAIKKSSMKMELLKKELLTIEPKLKEATKDNELNVKHVKQCQETCDKLRARLVEYGFDPSRIKDLKQREDKLKSHYYQTCKNSEYLKRRVTNLEFNYTKPYPNFEASFVHGVVGQLFQIDNDNIRYATALQTCAGGRLFNVVVQDSQTATQLLERGRLRKRVTIIPLDKIYTRPISSQVLDLAKKIAPGKVELAINLIRFDESITKAMEFIFGNSLICEDPETACKITFHPKIRARSITLQGDVYDPEGTLSGGSRNTSESLLVDIQKYNQIQKQIETIQADLNHVTEELQTQYATSQKTKTIQSDLNLSLHKLDLAKRNLDANPSSQIIARNEEILRDIGECENEIKTKQMSLKKCQEEVSTIEKDMKEYDSDKGSKLNELKKELKLLAKELEEQESESERKYDLFQNLELETEQLSSELDSNKTLLHNHLKSIESLKLENSDLEGKIRGVEDDLVTVQTELNEEKKRLMDIDDELNELETLIKKKQDEKKSSELELQKLVHDLNKYKSNTNNMEKIIEDLRQKHEFLEDFDLVRNIVKQNEGIDLDTYRERSKQLNEKFQELRKKVNPNIMNMIENVEKKEAALKTMIKTIEKDKMKIQETISKLNEYKRETLVKTWEKVTLDFGNIFADLLPNSFAKLVPCEGKDVTQGLEVKVKLGNIWKESLIELSGGQRSLIALSLIMALLQFRPAPMYILDEVDAALDLSHTQNIGHLIKTRFKGSQFIVVSLKEGMFANANRVFRTRFQDGTSVVSIM
Regarding B1, the binding result in experiment [1] is reported as “binds”.

B2: Smc2 E1113Q (Walker B mutant, EQ) of the S. cerevisiae condensin holo complex (natural protein)
chain: B1 chain with C639K, E1113Q
Regarding B2, in experiment [2], the binding result is reported as “binds”.

B3: Brn1 K709C, the Brn1 part of the Smc2–TEV–Brn1 fusion (SMC-kleisin ring circularization in vitro) (natural protein, S. cerevisiae)
chain: MTTQLRYENNDDDERVEYNLFTNRSTMMANFEEWIKMATDNKINSRNSWNFALIDYFYDLDVLKDGENNINFQKASATLDGCIKIYSSRVDSVTTETGKLLSGLAQRKTNGASNGDDSNGGNGEGLGGDSDEANIEIDPLTGMPISNDPDVNNTRRRVYNRVLETTLVEFETIKMKELDQELIIDPLFKKALVDFDEGGAKSLLLNTLNIDNTARVIFDASIKDTQNVGQGKLQRKEEELIERDSLVDDENEPSQSLISTRNDSTVNDSVISAPSMEDEILSLGMDFIKFDQIAVCEISGSIEQLRNVVEDINQAKDFIENVNNRFDNFLTEEELQAAVPDNAEDDSDGFDMGMQQELCYPDENHDNTSHDEQDDDNVNSTTGSIFEKDLMAYFDENLNRNWRGREHWKVRNFKKANLVNKESDLLEETRTTIGDTTDKNTTDDKSMDTKKKHKQKKVLEIDFFKTDDSFEDKVFASKGRTKIDMPIKNRKNDTHYLLPDDFHFSTDRITRLFIKPGQKMSLFSHRKHTRGDVSSGLFEKSTVSANHSNNDIPTIADEHFWADNYERKEQEEKEKEQSKEVGDVVGGALDNPFEDDMDGVDFNQAFEGTDDNEEASVKLDLQDDEDHKFPIRENKVTYSRVSKKVDVRRLKKNVWRSINNLIQEHDSRKNREQSSNDSETHTEDESTKELKFSDIIQGISKMYSDDTLCDISTSFCFICLLHLANEHGLQITHTENYNDLIVNYEDLATTQAAS
Regarding B3, the binding result in experiment [1] was “binds”.
